Experiments:
[1] = molecular target: T1, NRF2;MAFG (human?;human?, UniProt Q16236;O15525 1-605;1-162, |); test: protein binding microarray, anti-NRF2 detection
[2] = molecular target: T1, NRF2;MAFG; test: protein binding microarray, anti-NRF2 detection; remark: listed apart in the source

Binder	binding signal [1]	binding result [2]
NQO1.ARE (dsDNA, 3' biotin on top strand; nick in top strand between nt 33 and 34) DNA 1: CCGCAGTCACAGTGACTCAGCAGAATCTGAGCCACCCAACCGCCCAACTT DNA 2: AAGTTGGGCGGTTGGGTGGCTCAGATTCTGCTGAGTCACTGTGACTGCGG	1 relative to NQO1.ARE	–
7A (dsDNA, 3' biotin on top strand; nick in top strand between nt 33 and 34) DNA 1: CCGCAGTCACAGTGACTAAGCAGAATCTGAGCCACCCAACCGCCCAACTT DNA 2: AAGTTGGGCGGTTGGGTGGCTCAGATTCTGCTTAGTCACTGTGACTGCGG	–	binds
